Literature values, collected in patent US20220280439A1, “METHODS FOR LOWERING THE INFECTION RATE OF VIRUSES” (Finncure Oy, priority 2020, published 2022).

Target: ACE2 (Homo sapiens, UniProt Q9BYF1)
Conditions: simulation, ref [8]; for binding affinity towards the ACE2 receptor: compared with hexapeptide YKYRYL

Chain of ACE2 (Q9BYF1 18-805): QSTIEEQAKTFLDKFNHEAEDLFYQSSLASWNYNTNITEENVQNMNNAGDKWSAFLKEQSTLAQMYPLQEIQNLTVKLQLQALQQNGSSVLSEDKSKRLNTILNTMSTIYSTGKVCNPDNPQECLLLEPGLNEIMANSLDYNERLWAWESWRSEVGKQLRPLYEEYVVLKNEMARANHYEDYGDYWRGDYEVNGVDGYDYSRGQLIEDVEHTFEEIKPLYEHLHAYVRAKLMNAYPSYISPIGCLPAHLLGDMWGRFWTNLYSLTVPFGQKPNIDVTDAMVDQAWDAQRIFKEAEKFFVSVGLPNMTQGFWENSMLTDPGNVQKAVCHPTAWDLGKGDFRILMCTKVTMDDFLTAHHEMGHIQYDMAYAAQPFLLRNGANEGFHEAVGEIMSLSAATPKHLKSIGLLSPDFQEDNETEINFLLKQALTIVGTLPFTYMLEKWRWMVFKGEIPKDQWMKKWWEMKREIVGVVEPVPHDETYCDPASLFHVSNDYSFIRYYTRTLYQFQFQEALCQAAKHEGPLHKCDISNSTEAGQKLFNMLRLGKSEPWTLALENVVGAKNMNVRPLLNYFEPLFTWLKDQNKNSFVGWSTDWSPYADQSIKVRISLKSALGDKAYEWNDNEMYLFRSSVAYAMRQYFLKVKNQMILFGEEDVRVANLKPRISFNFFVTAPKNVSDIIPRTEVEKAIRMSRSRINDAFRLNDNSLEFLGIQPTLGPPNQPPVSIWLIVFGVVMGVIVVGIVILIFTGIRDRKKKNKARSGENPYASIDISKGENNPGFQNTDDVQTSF

Row | Substance | binding affinity towards the ACE2 receptor | Kd (binding to ACE2, estimated) [µM]
1 | YKYNYI (Potential alternative synthetic hexapeptide variant) [alternative synthetic hexapeptide variant from simulation] | even stronger binding affinity | 
2 | YKYNYL (Potential alternative synthetic hexapeptide variant) [alternative synthetic hexapeptide variant from simulation] | even stronger binding affinity | 
3 | YKYRYL |  | 46
